FCR, Feed intake and Weight increase data for two molecules are collected here from patent US8197839B2, “Sustained release delivery system” (Virbac Corporation, priority 2001, dated 2012).

The nature of the assay: Feed conversion efficiency in pigs after sub-cutaneous implantation of rPST compressed tablets, 0-7 days. The note with it: 0-7 days (Table 6). The format is in vivo. The source says:
A number of the compressed tablets were implanted via sub-cutaneous injection in pigs.

B1: PST Injection A: daily injection of porcine somatotropin, 5 mg/day, comparator (source A) (protein, UniProt P01248 27-216, looked up)
Somatotropin: FPAMPLSSLFANAVLRAQHLHQLAADTYKEFERAYIPEGQRYSIQNAQAAFCFSETIPAPTGKDEAQQRSDVELLRFSLLLIQSWLGPVQFLSRVFTNSLVFGTSDRVYEKLKDLEEGIQALMRELEDGSPRAGQILKQTYDKFDTNLRSDDALLKNYGLLSCFKKDLHKAETYLRVMKCRRFVESSCAF
Regarding B1, the FCR amounted to 1.97, the Feed intake amounted to 16.33 kgs and the Weight increase worked out at 8.30 kgs.

B2: PST Injection M: daily injection of porcine somatotropin, 5 mg/day, comparator (source M) (protein, UniProt P01248 27-216, looked up)
Somatotropin: B1 Somatotropin
As for B2, the FCR is 1.78, the Feed intake came to 16.78 kgs and the Weight increase was 9.43 kgs.
